Target: the molecule itself
Assay: cryo-EM structure; PDE3A-SLFN12 (K213R) complex purified from nauclefine-treated HeLa cells; single-particle, C2 symmetry, 3.2 Å

B1: phosphodiesterase 3A (PDE3A), endogenous (enzyme, human (endogenous in HeLa), UniProt Q14432 1-1141, looked up)
chain: MAVPGDAARVRDKPVHSGVSQAPTAGRDCHHRADPASPRDSGCRGCWGDLVLQPLRSSRKLSSALCAGSLSFLLALLVRLVRGEVGCDLEQCKEAAAAEEEEAAPGAEGGVFPGPRGGAPGGGARLSPWLQPSALLFSLLCAFFWMGLYLLRAGVRLPLAVALLAACCGGEALVQIGLGVGEDHLLSLPAAGVVLSCLAAATWLVLRLRLGVLMIALTSAVRTVSLISLERFKVAWRPYLAYLAGVLGILLARYVEQILPQSAEAAPREHLGSQLIAGTKEDIPVFKRRRRSSSVVSAEMSGCSSKSHRRTSLPCIPREQLMGHSEWDHKRGPRGSQSSGTSITVDIAVMGEAHGLITDLLADPSLPPNVCTSLRAVSNLLSTQLTFQAIHKPRVNPVTSLSENYTCSDSEESSEKDKLAIPKRLRRSLPPGLLRRVSSTWTTTTSATGLPTLEPAPVRRDRSTSIKLQEAPSSSPDSWNNPVMMTLTKSRSFTSSYAISAANHVKAKKQSRPGALAKISPLSSPCSSPLQGTPASSLVSKISAVQFPESADTTAKQSLGSHRALTYTQSAPDLSPQILTPPVICSSCGRPYSQGNPADEPLERSGVATRTPSRTDDTAQVTSDYETNNNSDSSDIVQNEDETECLREPLRKASACSTYAPETMMFLDKPILAPEPLVMDNLDSIMEQLNTWNFPIFDLVENIGRKCGRILSQVSYRLFEDMGLFEAFKIPIREFMNYFHALEIGYRDIPYHNRIHATDVLHAVWYLTTQPIPGLSTVINDHGSTSDSDSDSGFTHGHMGYVFSKTYNVTDDKYGCLSGNIPALELMALYVAAAMHDYDHPGRTNAFLVATSAPQAVLYNDRSVLENHHAAAAWNLFMSRPEYNFLINLDHVEFKHFRFLVIEAILATDLKKHFDFVAKFNGKVNDDVGIDWTNENDRLLVCQMCIKLADINGPAKCKELHLQWTDGIVNEFYEQGDEEASLGLPISPFMDRSAPQLANLQESFISHIVGPLCNSYDSAGLMPGKWVEDSDESGDTDDPEEEEEEAPAPNEEETCENNESPKKKTFKRRKIYCQITQHLLQNHKMWKKVIEEEQRLAGIENQSLDQTPQSHSSEQIQAIKEEEEEKGKPRGEEIPTQKPDQ
notes: PDE3A, human, endogenous in HeLa cells; appeared as its full length in the purification; only the catalytic domain K669-Q1102 is resolved in the cryo-EM maps; the purified band is called full length; It is a homodimer in the complex structures; source: endogenous, HeLa; in lysate (co-IP); co-purified with tagged SLFN12 by Flag-HA tandem pull-down (cryo-EM)
stoichiometry N: 2
